This data set concerns the molecule itself. Briefly: negative-stain electron microscopy + sedimentation assay.

Results on 2 proteins are retold here after publication PMC2120335 (The Journal of Cell Biology, 1995).

B1: 454C, COOH-terminal half of scruin (domain or fragment)
chain: MQQGDSSGSTMLEGNDRISGRIRTYISGYRPLPPDQDDLSKELVPVSIPFWPPDPDTTDSVFHTVRDQYRNPEEQMGFKHFYTIPRQMDPNLGMLLFMDEDYQHSKKVLGLRSVESVPYYINRFQASGTIQDNTIPVIIGTGGVDLRDPMNIAYGRSVFQYHPLKDRWEFFGYMPQPRNYHAAAYYRSAIYITGGYDPDVRTWGEMVATKTTFVYELASKNWTRMGDMRCARSHHSLLVFNDVLYAIGGRDDIGRLVSSVESYDHESNEWTMEKSMPSPRMGMAAVAHGGYIWLLGGLTSMTTEEPPVLDDVLCYDPVFKHWVDGRPLRIGRAFGNAAVCDNKIWLCGGAAPSTDENNYLVSVPAIDVYDEETMEWKQKTSLGCPRHSAIVVALESCLYIAGGVNSHELSATSRNELYMVDNDTIQTVRELPIPLTGMAAVTIPPKCVTFRSESLSIMIRHKVTP
With B1, the binding result is “binds”.

B2: 590C, smaller COOH-terminal fragment of scruin (domain or fragment)
chain: VIIGTGGVDLRDPMNIAYGRSVFQYHPLKDRWEFFGYMPQPRNYHAAAYYRSAIYITGGYDPDVRTWGEMVATKTTFVYELASKNWTRMGDMRCARSHHSLLVFNDVLYAIGGRDDIGRLVSSVESYDHESNEWTMEKSMPSPRMGMAAVAHGGYIWLLGGLTSMTTEEPPVLDDVLCYDPVFKHWVDGRPLRIGRAFGNAAVCDNKIWLCGGAAPSTDENNYLVSVPAIDVYDEETMEWKQKTSLGCPRHSAIVVALESCLYIAGGVNSHELSATSRNELYMVDNDTIQTVRELPIPLTGMAAVTIPPKCVTFRSESLSIMIRHKVTP
Regarding B2, the binding result is “binds”.
